The values below come from paper PMC12219679, “High yield purification of an isoleucine zipper-modified CD95 ligand for efficient cell apoptosis initiation and with biotin or DNA-oligomer binding domain to probe ligand functionalization effects” (BMC Biotechnology, 2025).

“And” between values parts separate entries of the source, which are not always exact repeats. Equal entries are not always repeated.

Data set [1] concerns the molecule itself. As to the kind of experiment: SEC; Superdex 75 10/300 GL (Fig. 3A) or ENrich SEC 70 10 x 300 (Fig. 3B, C); PBS pH 7.4, 0.3 ml/min; sizes from a standard curve of protein standards; peak shares from Gaussian fits.
The next data set addresses T1, FLAG-CD95L (Enzo) (UniProt P48023 130-281).
T1 construct: CD95 ligand (CD95L, Fas ligand), soluble commercial protein with a FLAG tag; No catalogue number is printed; source: bought: Enzo Life Sciences
T1 sequence (looked up): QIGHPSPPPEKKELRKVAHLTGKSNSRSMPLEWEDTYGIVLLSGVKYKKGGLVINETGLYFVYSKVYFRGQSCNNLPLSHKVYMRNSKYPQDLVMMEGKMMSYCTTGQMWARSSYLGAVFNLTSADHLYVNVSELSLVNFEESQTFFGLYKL
The data set is described as follows: ELISA; CD95-His coated at 2 µg/ml in PBS overnight at 4 °C; biotin-IZ-CD95L or FLAG-CD95L 0.1 nM to 100 nM in 0.5% BSA/PBST, 2 h at r.t.; detected with anti-CD95L antibody and HRP secondary; 4-parameter logistic fit. The settings on record: both partners purified.

B1: His-IZ-CD95L (His8-TEV-Cys-IZ-CD95L, secreted form without the IL2 signal peptide) (ligand)
chain: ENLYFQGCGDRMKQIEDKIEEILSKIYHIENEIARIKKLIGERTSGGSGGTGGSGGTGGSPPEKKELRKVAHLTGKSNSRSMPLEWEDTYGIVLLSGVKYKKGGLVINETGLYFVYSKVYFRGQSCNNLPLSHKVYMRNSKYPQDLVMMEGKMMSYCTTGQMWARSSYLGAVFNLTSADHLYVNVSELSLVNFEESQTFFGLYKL
notes: TEV protease cleavage site ENLYFQ, extra cysteine, isoleucine zipper (IZ, variant of the GCN4 leucine zipper) and linker; stands after the His8 tag in the printed insert; CD95 ligand (CD95L, Fas ligand, CD178, TNFSF6), human, extracellular domain, amino acids 137-281, without the stalk region; Origin: a designed isoleucine zipper joined to a natural stretch of CD95L; also called X-IZ-CD95L; …
Consider B1, for which the “stoichiometry N” value in data set [1] was 3 and 2.

B2: CD95-His (Sino Biological) (receptor, UniProt P25445 26-173, looked up)
chain: QVTDINSKGLELRKTVTTVETQNLEGLHHDGQFCHKPCPPGERKARDCTVNGDEPDCVPCQEGKEYTDKAHFSSKCRRCRLCDEGHGLEVEINCTRTQNTKCRCKPNFFCNSTVCEHCDPCTKCEHGIIKECTLTSNTKCKEEGSRSN
notes: CD95 (Fas, Apo-1), soluble commercial protein with a His tag; No catalogue number is printed; In the functional rows on Hela WT cells the CD95 is the endogenous receptor of the cells; this molecule stands for it; also called Fas; Apo-1; source: bought: Sino Biological
Consider B2, for which, in the data set with FLAG-CD95L (Enzo), the Kd stood at 11.3 nM.
